Measurements as given in the supplement of paper PMC10724198.
± gives the standard deviation of the averaged measurements.

System: Saccharomyces cerevisiae
Experiment: protein stability index of tFT-peptide fusion (C-terminal peptide) (PSI (0-1 scale)); higher = more stable (slower turnover)
Conditions: temperature: 30 C
Method: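 MPS profiling in S. cerevisiae of the yeast C-terminome library: the last 12 aa of each annotated ORF are fused to the C-terminus of a sfGFP-mCherry timer, after a GGGS linker. Cells are FACS-sorted into 8 mCherry/sfGFP bins and deep-sequenced. PSI runs from 0 (unstable) to 1 (stable); wild type and das1Δ backgrounds, two technical replicates each.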

[1] = genetic background: das1 deletion

Sequence | protein stability index [1] | protein stability index (genetic background: wild type)
DILSQIIESCWV [YNL174W C-terminal 12 aa] | 0.654 ± 0.0069 | 0.705 ± 0.083
AVKYLYRQIVRN [EFM2 C-terminal 12 aa] | 0.6832 ± 0.0033 | 0.6213 ± 0.0041
SNYGGNSTWGGH [SPT5 C-terminal 12 aa] | 0.732 ± 0.11 | 0.673 ± 0.16
RCWVQAVFDVPQ [ABP140 C-terminal 12 aa] | 0.725 ± 0.011 | 0.691 ± 0.046
DESVDMNVGISY [YCL046W C-terminal 12 aa] | 0.721 ± 0.0092 | 0.718 ± 0.035
LEKSTNPIKKNN [VOA1 C-terminal 12 aa] | 0.703 ± 0.023 | 0.765 ± 0.038
VTEAESTASAST [BUD20 C-terminal 12 aa] | 0.7 ± 0.013 | 0.6926 ± 0.006
DSFVEFWGRILY [PUL4 C-terminal 12 aa] | 0.704 ± 0.033 | 0.6623 ± 0.0034
KICEVAARQKWI [AAN1 C-terminal 12 aa] | 0.6888 ± 0.0048 | 0.627 ± 0.02
RRQSLPKRFPLI [YAR035C-A C-terminal 12 aa] | 0.717 ± 0.014 | 0.697 ± 0.022
TNMSSVSAFISR [PTK2 C-terminal 12 aa] | 0.718 ± 0.0017 | 0.713 ± 0.013
NSFDGLLVYLSN [CBF2 C-terminal 12 aa] | 0.6572 ± 0.0033 | 0.6615 ± 0.0065
GKYNIKVKLNFI [VAR1 C-terminal 12 aa] | 0.704 ± 0.027 | 0.69 ± 0.096
KKKSRMFSFRKS [UBP13 C-terminal 12 aa] | 0.702 ± 0.011 | 0.709 ± 0.048
QLHLVLTLRGGN [RUB1 C-terminal 12 aa] | 0.683 ± 0.011 | 0.74 ± 0.053
LLLTILLFYPPY [YBL109W C-terminal 12 aa] | 0.296 ± 0.011 | 0.318 ± 0.022
GFKGFSNKRVKG [MSS18 C-terminal 12 aa] | 0.689 ± 0.015 | 0.6964 ± 0.0036
PAAISGTVPSIF [DIN7 C-terminal 12 aa] | 0.715 ± 0.021 | 0.677 ± 0.017
LGKKKPPSRLFR [CDC25 C-terminal 12 aa] | 0.707 ± 0.019 | 0.715 ± 0.035
SLIDAKTGLPKE [MVD1 C-terminal 12 aa] | 0.6964 ± 0.004 | 0.706 ± 0.042
TMSLLKRNPRNH [TRM44 C-terminal 12 aa] | 0.704 ± 0.02 | 0.683 ± 0.032

Sequence | protein stability index [1] | protein stability index (genetic background: wild type)
ERNPTQRPQRRY [RPS10A C-terminal 12 aa] | 0.728 ± 0.036 | 0.679 ± 0.036
QINDLEIYRKRL [SNT309 C-terminal 12 aa] | 0.6847 ± 0.006 | 0.68 ± 0.029
FIEALAKSVNEL [UGA1 C-terminal 12 aa] | 0.7371 ± 0.0042 | 0.689 ± 0.054
GNLMRSSNVLEK [SLO1 C-terminal 12 aa] | 0.685 ± 0.0076 | 0.7 ± 0.016
LSTLGVGAAIIS [AVT1 C-terminal 12 aa] | 0.695 ± 0.024 | 0.675 ± 0.035
PEMTRRGRGPRR [RPA49 C-terminal 12 aa] | 0.714 ± 0.022 | 0.673 ± 0.033
LRKRLSCYMLIL [YDR114C C-terminal 12 aa] | 0.576 ± 0.013 | 0.4114 ± 0.0012
MDNKQQLSSGRT [SNA3 C-terminal 12 aa] | 0.709 ± 0.016 | 0.686 ± 0.021
VIASDESSHLSY [YHR127W C-terminal 12 aa] | 0.709 ± 0.017 | 0.699 ± 0.024
RYAHIGGLHQRT [PRR2 C-terminal 12 aa] | 0.709 ± 0.01 | 0.686 ± 0.018
GKVAKYIFDNIC [BNA7 C-terminal 12 aa] | 0.696 ± 0.015 | 0.722 ± 0.024
VSLDNLPGVEKK [SUA7 C-terminal 12 aa] | 0.682 ± 0.022 | 0.683 ± 0.014
IVNIKILRRNSR [LDB16 C-terminal 12 aa] | 0.796 ± 0.014 | 0.7813 ± 0.003
SFTKSRIHLEFT [SPC105 C-terminal 12 aa] | 0.706 ± 0.024 | 0.69832 ± 2.3e-05
RVPQSRSFGNLR [NUM1 C-terminal 12 aa] | 0.738 ± 0.012 | 0.746 ± 0.038
GQPPAPFRLRSD [SDS3 C-terminal 12 aa] | 0.7109 ± 0.00038 | 0.709 ± 0.049
DGWIPTRTDDVK [TAD1 C-terminal 12 aa] | 0.703 ± 0.008 | 0.707 ± 0.094
RPDSTAPSNENQ [PEP1 C-terminal 12 aa] | 0.7262 ± 0.00093 | 0.7245 ± 0.0041
NYRLEEQDVLTW [LYS14 C-terminal 12 aa] | 0.721 ± 0.037 | 0.693 ± 0.058
YDYLINNKTIFD [POF1 C-terminal 12 aa] | 0.722 ± 0.022 | 0.736 ± 0.022
